Source: patent US20090297535A1 (Ablynx, published 2009)
Substitutions are numbered along the chain they refer to.

B1: PMP21B4 (VHH)
VHH: QVQLVESGGGLVQAGDSLRVACAASGRTFSIDAMAWFRQAPGKEREFVSTMNWSTGATYYADSVKGRFTSSRDNAKSTSYLQMNSLKPEDTAVYYCAAARGLLIATDARGYDYWGQGTQVTVSS
notes: Monovalent Nanobody
B2: PMP10C4 (VHH)
VHH: AVQLVDSGGGLVQAGGSLRLSCAASGRSFSNYHMVWFRQAPGKEREFVAAASGSTSSTYYADSVKGRFTISRDNAKNTVYLQMNSLKPEDTAVYYCAAVAGLLLPRVAEGMDYWGKGTLVTVSS
notes: Monovalent Nanobody
B3: PMP10A6 (VHH)
VHH: QVQLVESGGGLVQAGGSLRLSCASSGRTFSSYVMGWFRQTPGKEREFVSTINWSGSNGYYADSVKGRFTISRDNAKNTVYLQMNNLKPEDTAVYYCAASAGGFLVPRVGQGYDYWGQGTQVTVSS
notes: Monovalent Nanobody
B4: PMP17C4 (VHH)
VHH: AVQLVDSGGGLVQAGDSLRLSCAASGRTFSNYAMAWFRQAPGKEREFVAVISYAGGRTYYADSVKGRFTISRDNAKNTVYLQMNSLKPEDTAVYYCAAVDSPLIATHPRGYDYWGQGTQVTVSS
notes: Monovalent Nanobody
B5: PMP17B11 (VHH)
VHH: QVQLVESGGGLVQAGGSLRLSCAASGPTFSTYAMGWFRQAPGKEREFVAAISWSGANTYYADSVKGRFTISRDNAKNTVYLRMNSLKPEDTAAYYCAASAIIEGFQDSIVIFSEAGYDYWGQGTQVTVSS
B6: PMP21E7 (VHH)
VHH: AVQLVESGGGLVQAGGSLRLSSVVSGGTFSSYPIAWFRQPPGKEREFVAAISWRGGNTYYADSVKGRFTISRDNAKNTVYLQMNSLKPEDTAVYYSAAERAGVLLTKVPEGYDYWGQGTQVTVSS
notes: Monovalent Nanobody
B7: NC6 (VHH)
VHH: EVQLVESGGGLVQAGGSLRLSCAASGPTFSSYAMGWFRQAPGKDREFVAAISSNGGSTRYADSVKGRFTISRDSAKNTAYLQMNSLKLEDTAVYYCAADETTGWVQLADFRSWGQGTQVTVSS
notes: Monovalent Nanobody
B8: PMP6D5 (VHH)
VHH: QVQLVESGGGLVQAGGSLRLSCAASGRTFSPYTMGWFRQPPGKVREFVGRINWSGIRNYADSVKGRFTISRDNNNNTVYLQMNRLKPEDTAVYYCAAASQSGSGYDSWGQGTQVTVSS
B9: PMP20F4 (VHH)
VHH: B8 VHH with Q100R
notes: Monovalent Nanobody
B10: PMP21A7 (VHH)
VHH: B8 VHH with Q1A, G16S, R57T, N75K, Q100R
notes: Monovalent Nanobody
B11: PMP13D8 (VHH)
VHH: B8 VHH with Q3K, V5E, G16S, F29S, R57T, N75K, A97S, S101V
notes: Monovalent Nanobody
B12: PMP13A1 (VHH)
VHH: B8 VHH with Q1A, E6D
notes: Monovalent Nanobody
B13: PMP20G9 (VHH)
VHH: B8 VHH with M34V
notes: Monovalent Nanobody
B14: PMP21E12 (VHH)
VHH: AVQLVESGGGLVQPGGSLRLSCAASGSITSINPMGWYRQAPGKQRELVARIHGSITNYADSVKGRFTISRDIAKNTVYLQMNSLKPEDTAVYYCNARRWGYDYWGQGAQVTVSS
notes: Monovalent Nanobody
B15: PMP21C12 (VHH)
VHH: B14 VHH with S30G, V77A
notes: Monovalent Nanobody
B16: PMP14G4 (VHH)
VHH: AVQLVDSGGGLVQAGGSLRLSCAASGRTFSSYPMGWFRQGPGKERKFVAGISQSGVGTAYSDSVKGRFTISRENAKNTVYLQMNSLKPEDTAVYYCAARDKTLALRDYAYTTDVGYDDWGQGTQVTVSS
notes: Monovalent Nanobody
B17: PMP20D2 (VHH)
VHH: AVQLVESGGGLVQPGGSLRLSCAASGSISRFNIMGWYRQAPGKQRELVADITNRGTTNYADSVKGRFTISRDNTKNTVYLQMNSLKPDDTAVYYCHTYYPTTGFDDWGQGTQVTVSS
notes: Monovalent Nanobody
B18: PMP13H6 (VHH)
VHH: B3 VHH with Q3K, V5E, G58K, N85S
notes: Monovalent Nanobody
B19: PMP23H2 (VHH)
VHH: AVQLVDSGGGLVQPGGSLRLSCAASGSIFSRLAMDWYRQAPGKQRELVASIAVSGTTMLDDSVKGRFTISRDNAENTVYLQMNSLKPEDTAVYYCMAFDGYTGSDYWGRGTQVTVSS
notes: Monovalent Nanobody
B20: NC3 (VHH)
VHH: EVQLVESGGGLVQPGGSLRLSCAASGNIAAINVMNWYRQAPGTQREFVAAITSGGRKNYADSVKGRFTISRDNAKNTVHLQMNSLKPEDTAVYYCNADAPLASDDDVAPADYWGQGTQVTVSS
notes: Monovalent Nanobody
B21: PMP6G10 (VHH)
VHH: QVQLVESGGGLAQAGGSLRLSCVVSGRTFSPYTIGWFSQRPGKEREWVATIIGSDRSTDLDGDTYYADSVRGRFTISRNDAKNTVSLQMNSLKPEDSAVYYCALTAKGYVFTDNEYDYWGQGTQVTVSS
notes: Monovalent Nanobody
B22: PMP21C2 (VHH)
VHH: QVQLVESGGGLVQPGGSLRLSCAASEYITSINPMAWYRQAPGKQRDLVARIFGGGSTNYADSVKGRFTISRDIAKNTVSLQMNSLKPEDTAVYYCNARRWGYDYWGQGTQVTVSS
notes: Monovalent Nanobody
B23: PMP7H3 (VHH)
VHH: DVQLVESGGGLVQPGGSLRLSCAASGFTLDYYGVGWFRQAPGKEREGVSCISSSDGDTYYADSVKGRFTISRDNAKNTVYLQMNSLKPEDTAVYYCATDLSDYGVCSRWPSPYDYWGQGTQVTVSS
notes: Monovalent Nanobody
B24: PMP9A9 (VHH)
VHH: B23 VHH with D1Q, T28S, I51T
notes: Monovalent Nanobody
B25: PMP22E3 (VHH)
VHH: QVQLVESGGGLVQPGGSLRLSCAASGFTLDDSAIGWFRQAPGKEREGVSCISSSDGDTYYDDSVKGRFTISRDNVKNMVYLQMNSLKPEDTAVYFCAIDLSDYGVCSKWPSPYDYWGQGTQVTVSS
notes: Monovalent Nanobody
B26: PMP6B7 (VHH)
VHH: QVQLVESGGGLVQAGGSLRLSCAASGGTFSAFPMGWFRQAPGKERKFVAGISQSGGSTHYSDSVKGRFTISRENAKNTVYLQMNSLKPEDTAVYYCAARGRTLALRNYAYTTEVGYDDWGQGTQVTVSS
notes: Monovalent Nanobody
B27: PMP17B5 (VHH)
VHH: B26 VHH with V79I
notes: Monovalent Nanobody
B28: PMP12C5 (VHH)
VHH: B26 VHH with Q1D, S30T, A31S, F32Y, H59A, N77T, A104F, N107G
notes: Monovalent Nanobody
B29: PMP14A8 (VHH)
VHH: B26 VHH with Q1E, A31S, S85N
notes: Monovalent Nanobody
B30: PMP17D7 (VHH)
VHH: B26 VHH with Q1A, E6D, K46E, R72K
notes: Monovalent Nanobody
B31: PMP14E1 (VHH)
VHH: B16 VHH with A1Q, D6E, G40A, V56G, G57S, N77S
notes: Monovalent Nanobody
B32: PMP6E9 (VHH)
VHH: B26 VHH with Q1E, G27R, A31S, F32Y, G55S, G56S, H59A, N107D
notes: Monovalent Nanobody
B33: PMP17G7 (VHH)
VHH: B26 VHH with Q3K, V5E, A31S, F32Y, K46E, A49T, H59A, L103I
notes: Monovalent Nanobody
B34: PMP14E9 (VHH)
VHH: B26 VHH with Q1A, K46E, R72K, N77S
notes: Monovalent Nanobody
B35: PMP14G11 (VHH)
VHH: B26 VHH with A31S, E44G, K46E
notes: Monovalent Nanobody
B36: PMP14G1 (VHH)
VHH: B26 VHH with Q3K, V5E, K46E, R72K, R101G
notes: Monovalent Nanobody
B37: PMP12H3 (VHH)
VHH: B26 VHH with Q1A, E6D, S30T, A31S, F32Y, H59A, N77T, A104F, N107D
notes: Monovalent Nanobody
B38: PMP9F9 (VHH)
VHH: B26 VHH with Q1A, A31S, K43E, E44K, K46E, K76R
notes: Monovalent Nanobody

These binders were tested against T1, recombinant human IL6 (human, UniProt P05231 30-212) (assay: cell-based or functional assay).

| IC50, inhibition of proliferation of the murine hybridoma cell line B9 (B9 assay, cell proliferation normalized) [pM] | Binder |
| --- | --- |
| 1860 | B1 |
| 961 | B2 |
| 332 | B3 |
| 64 | B4 |
| 702 | B5 |
| 50 | B6 |

Each binder was assayed against T1, recombinant human IL6 (assay: SPR, Biacore 3000; IL6 amine-coupled on CM5 chip, periplasmic extract injected).
Procedure: Off-rate analysis of Nanobodies binding to IL6 was done by surface plasmon resonance on a Biacore 3000 instrument. Recombinant human IL6 was covalently bound to a CM5 sensor chip via amine coupling at a density of ˜500 RU. Remaining reactive groups were inactivated. Periplasmic extracts prepared from E. coli cells expressing anti-IL6 Nanobodies were diluted 10 or 15-fold and injected for 4 min to allow for binding to IL6 immobilized on the chip. Buffer without Nanobody was sent over the chip for 30 min to allow for spontaneous dissociation of bound Nanobody. The dissociation phase was used to calculate the koff values for each individual Nanobody (table B-1).

| koff [s⁻¹] | Binder |
| --- | --- |
| 0.000658 | B1 |
| 0.00082 | B7 |
| 0.000511 | B8 |
| 0.000195 | B9 |
| 0.000526 | B10 |
| 0.000251 | B11 |
| 0.000396 | B12 |
| 0.000318 | B13 |
| 0.00222 | B14 |
| 0.000897 | B15 |
| 0.000312 | B16 |
| 0.000243 | B17 |
| 0.00082 | B2 |
| 0.00104 | B3 |
| 0.00189 | B18 |
| 0.00137 | B4 |
| 0.0016 | B19 |
| 0.00056 | B20 |
| 0.000433 | B21 |

| koff [s⁻¹] | Binder |
| --- | --- |
| 0.00133 | B5 |
| 0.00116 | B22 |
| 0.00309 | B23 |
| 0.00605 | B24 |
| 0.00519 | B25 |
| 0.000772 | B6 |
| 0.000199 | B26 |
| 0.00015 | B27 |
| 0.000211 | B28 |
| 0.000131 | B29 |
| 0.00116 | B30 |
| 0.00057 | B31 |
| 0.000631 | B32 |
| 0.000669 | B33 |
| 0.000531 | B34 |
| 0.000229 | B35 |
| 0.00079 | B36 |
| 0.000243 | B37 |
| 0.00019 | B38 |
